Target: ACM2 variant of AC fused to GFP (ACM2-GFP), encoded by plasmid pACM2-Gfp (Bordetella pertussis | not stated) (UniProt P0DKX7)
Assay: two-hybrid

Question: “calmodulin (CaM) with a 6-histidine tag at its N-terminus and a tetra-cysteine tag at its C-terminus, encoded by plasmid pTCam (from UniProt P0DP23 1-149) (natural protein)” was tested. Which ß gal (Rel. Units) did it give?
Answer: The ß gal (Rel. Units) was 8 Rel. Units.

Reference: paper PMC13334617
